Results on three molecules are retold here after publication PMC11574045, “A cofactor-induced repressive type of transcription factor condensation can be induced by synthetic peptides to suppress tumorigenesis” (The EMBO Journal, 2024).

The test system of the experiment is HEK293FT cells transfected with TF library. The experiment can be described thus: Screening of TF condensates based on fluorescent puncta. Type of experiment: cell-based. Particulars: Figure 1B numerical data; TF library screen, one value per transcriptional factor. The method, boiled down:
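Each TF construct was introduced into HEK293FT cells using PEI at 4.8 μg/ml; glucose deprivation versus normal medium lasted 12 h. Automated confocal-style imaging of tagged TF staining, 50 fields per well, gave the puncta data.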

B1: PQBP1 (protein, UniProt O60828 2-265, looked up)
Polyglutamine-binding protein …: PLPVALQTRLAKRGILKHLEPEPEEEIIAEDYDDDPVDYEATRLEGLPPSWYKVFDPSCGLPYYWNADTDLVSWLSPHDPNSVVTKSAKKLRSSNADAEEKLDRSHDKSDRGHDKSDRSHEKLDRGHDKSDRGHDKSDRDRERGYDKVDRERERDRERDRDRGYDKADREEGKERRHHRREELAPYPKSKKAVSRKDEELDPMDPSSYSDAPRGTWSTGLPKRNEAKTGADTTAAGPLFQQRPYPSPGAVLRANAEASRTKQQD
In the case of B1, the “Z score of condensed fraction” value is -0.5347.

B2: PRDM12 (protein, UniProt Q9H4Q4 1-367, looked up)
PR domain zinc finger protein …: MMGSVLPAEALVLKTGLKAPGLALAEVITSDILHSFLYGRWRNVLGEQLFEDKSHHASPKTAFTAEVLAQSFSGEVQKLSSLVLPAEVIIAQSSIPGEGLGIFSKTWIKAGTEMGPFTGRVIAPEHVDICKNNNLMWEVFNEDGTVRYFIDASQEDHRSWMTYIKCARNEQEQNLEVVQIGTSIFYKAIEMIPPDQELLVWYGNSHNTFLGIPGVPGLEEDQKKNKHEDFHPADSAAGPAGRMRCVICHRGFNSRSNLRSHMRIHTLDKPFVCRFCNRRFSQSSTLRNHVRLHTGERPYKCQVCQSAYSQLAGLRAHQKSARHRPPSTALQAHSPALPAPHAHAPALAAAAAAAAAAAAHHLPAMVL
Turning to B2, the “Z score of condensed fraction” value is listed as -1.027.

B3: PRDM10 (protein, UniProt Q9NQV6 1-1147, looked up)
PR domain zinc finger protein …: MDSKDESSHVWPTSAEHEQNAAQVHFVPDTGTVAQIVYTDDQVRPPQQVVYTADGASYTSVDGPEHTLVYIHPVEAAQTLFTDPGQVAYVQQDATAQQASLPVHNQVLPSIESVDGSDPLATLQTPLGRLEAKEEEDEDEDEDTEEDEEEDGEDTDLDDWEPDPPRPFDPHDLWCEECNNAHASVCPKHGPLHPIPNRPVLTRARASLPLVLYIDRFLGGVFSKRRIPKRTQFGPVEGPLVRGSELKDCYIHLKVSLDKGDRKERDLHEDLWFELSDETLCNWMMFVRPAQNHLEQNLVAYQYGHHVYYTTIKNVEPKQELKVWYAASYAEFVNQKIHDISEEERKVLREQEKNWPCYECNRRFISSEQLQQHLNSHDEKLDVFSRTRGRGRGRGKRRFGPGRRPGRPPKFIRLEITSENGEKSDDGTQDLLHFPTKEQFDEAEPATLNGLDQPEQTTIPIPQLPQETQSSLEHEPETHTLHLQPQHEESVVPTQSTLTADDMRRAKRIRLELQNAALQHLFIRKSFRPFKCLQCGKAFREKDKLDQHLRFHGREGNCPLTCDLCNKGFISSTSLESHMKLHSDQKTYSCIFCPESFDRLDLLKDHVAIHINDGYFTCPTCKKRFPDFIQVKKHVRSFHSEKIYQCTECDKAFCRPDKLRLHMLRHSDRKDFLCSTCGKQFKRKDKLREHMQRMHNPEREAKKADRISRSKTFKPRITSTDYDSFTFKCRLCMMGFRRRGMLVNHLSKRHPDMKIEEVPELTLPIIKPNRDYFCQYCDKVYKSASKRKAHILKNHPGAELPPSIRKLRPAGPGEPDPMLSTHTQLTGTIATPPVCCPHCSKQYSSKTKMVQHIRKKHPEFAQLSNTIHTPLTTAVISATPAVLTTDSATGETVVTTDLLTQAMTELSQTLTTDYRTPQGDYQRIQYIPVSQSASGLQQPQHIQLQVVQVASATSPHQSQQSTVDVGQLHDPQPYPQHAIQVQHIQVSGQPLSPSAQQAQQGLSPSHIQGSSSTQGQALQQQQQQQQNSSVQHTYLPSAWNSFRGYSSEIQMMTLPPGQFVITDSGVATPVTTGQVKAVTSGHYVLSESQSELEEKQTSALSGGVQVEPPAHSDSLDPQTNSQQQTTQYIITTTTNGNGSSEVHITKP
On to B3, for which the “Z score of condensed fraction” value is 0.3409.
